Tests used:
[1] = biological target: soluble human FcγRIIIA, biotinylated, tetramerized with streptavidin-PE (UniProt P08637); experiment: multiplex assay: antigen-conjugated beads stained with tetramerized receptor; details: highest antibody concentration point, log10 Ab (nM) about 1.6 (estimated); parent: est. 4.3; read off a plot
[2] = biological target: soluble human FcγRIIB, biotinylated, tetramerized with streptavidin-PE (UniProt P31994); experiment: as above; details: highest antibody concentration point, log10 Ab (nM) about 1.6 (estimated); parent: est. 3.4; read off a plot
[3] = biological target: soluble human FcγRIIIB, biotinylated, tetramerized with streptavidin-PE (UniProt O75015); experiment: as above; details: highest antibody concentration point, log10 Ab (nM) about 1.6 (estimated); parent: est. 3.3; read off a plot
[4] = biological target: soluble human FcγRIIA, biotinylated, tetramerized with streptavidin-PE (UniProt P12318); experiment: as above; details: highest antibody concentration point, log10 Ab (nM) about 1.6 (estimated); parent: est. 4.1; read off a plot
[5] = biological target: HIV-1_(YU-2) gp140 trimer; experiment: BLI (equilibrium KD)
[6] = biological target: HIV-1_(YU-2) gp140 trimer; experiment: BLI (kinetic KD, value in parentheses)

Chain of soluble human FcγRIIIB, biotinylated, tetramerized with streptavidin-PE (O75015 17-200): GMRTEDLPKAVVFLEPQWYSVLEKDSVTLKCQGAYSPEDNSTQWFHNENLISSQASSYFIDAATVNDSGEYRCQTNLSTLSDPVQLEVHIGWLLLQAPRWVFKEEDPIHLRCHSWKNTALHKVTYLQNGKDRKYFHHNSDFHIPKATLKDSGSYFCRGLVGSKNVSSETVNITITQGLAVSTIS
Chain of soluble human FcγRIIA, biotinylated, tetramerized with streptavidin-PE (P12318 34-217): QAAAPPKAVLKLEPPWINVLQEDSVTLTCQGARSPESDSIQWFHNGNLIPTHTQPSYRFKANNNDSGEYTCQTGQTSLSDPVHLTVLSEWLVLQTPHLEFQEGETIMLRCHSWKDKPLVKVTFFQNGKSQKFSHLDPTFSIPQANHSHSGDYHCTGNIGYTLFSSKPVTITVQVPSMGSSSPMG
Chain of soluble human FcγRIIB, biotinylated, tetramerized with streptavidin-PE (P31994 43-217): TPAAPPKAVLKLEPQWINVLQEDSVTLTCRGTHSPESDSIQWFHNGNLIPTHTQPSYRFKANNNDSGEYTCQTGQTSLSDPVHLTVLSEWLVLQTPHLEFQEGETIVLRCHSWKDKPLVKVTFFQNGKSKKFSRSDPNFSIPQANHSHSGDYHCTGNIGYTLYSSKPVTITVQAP
Chain of soluble human FcγRIIIA, biotinylated, tetramerized with streptavidin-PE (P08637 17-208): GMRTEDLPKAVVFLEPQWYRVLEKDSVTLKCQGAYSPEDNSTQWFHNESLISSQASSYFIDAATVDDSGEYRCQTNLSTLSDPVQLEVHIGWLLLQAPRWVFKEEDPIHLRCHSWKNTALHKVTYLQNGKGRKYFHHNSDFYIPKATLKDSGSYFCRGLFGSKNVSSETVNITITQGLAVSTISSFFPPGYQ

Row | Substance | response [1] | response [2] | response [3] | response [4] | Kd [5] | Kd [6]
1 | IgG1 b12 (unmodified Fc) (from UniProt P01857) L234A; L235A | 3.4 log10 MFI | 2 log10 MFI | 2 log10 MFI | 2 log10 MFI | 2.04 nM | 2.06 nM
2 | IgG1 b12 (unmodified Fc) (from UniProt P01857) E430G | – | – | 3.1 log10 MFI | 4 log10 MFI | 0.9 nM | 2.26 nM
3 | IgG1 b12 (unmodified Fc) (from UniProt P01857) G236A; S267E; H268F; S324T; I332E | – | 4.3 log10 MFI | 3.2 log10 MFI | 4.3 log10 MFI | 1.93 nM | 2.78 nM
4 | IgG1 b12 (unmodified Fc) (from UniProt P01857) K322A | – | – | – | – | 2.95 nM | 2.56 nM

Reference: publication PMC8510540
